Results published in patent publication US20180037651A1 (published 2018).

T1: human GPRC5D (UniProt Q9NZD1 1-345)
T1 chain: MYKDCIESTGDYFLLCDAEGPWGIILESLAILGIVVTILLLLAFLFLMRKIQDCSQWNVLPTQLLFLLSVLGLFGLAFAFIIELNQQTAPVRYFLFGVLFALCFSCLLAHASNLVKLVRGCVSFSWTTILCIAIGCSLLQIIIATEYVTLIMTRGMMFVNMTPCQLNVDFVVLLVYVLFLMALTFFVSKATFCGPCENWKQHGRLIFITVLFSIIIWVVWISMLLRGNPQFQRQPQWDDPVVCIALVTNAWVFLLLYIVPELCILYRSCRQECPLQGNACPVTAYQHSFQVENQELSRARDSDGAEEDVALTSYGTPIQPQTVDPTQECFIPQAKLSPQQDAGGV


Biological target: T1, human GPRC5D
Assay: FACS cell binding; MM.1R cells

Binder	EC50
GC5B599 (antibody, V domains shown) VH: EVQLVQSGAEVKKPGESLKISCKGSGYSFTSYFIGWVRQMPGKGLEWMGIIYPGKSDTRYSPSFQGQVTISADKSISTAYLQWSSLKASDTAMYYCARVYSFGGRHKALFDYWGQGTLVTVSS VL: EIVLTQSPATLSLSPGERATLSCRASQSVSSYLAWYQQKPGQAPRLLIYDASNRATGIPARFSGSGSGTDFTLTISSLEPEDFAVYYCQQRSNWPLTFGQGTKVEIK	0.1 nM
GC5B603 (antibody, V domains shown) VH: not shown VL: EIVLTQSPATLSLSPGERATLSCRASQSVRKSLAWYQQKPGQAPRLLIYTASNRATGIPARFSGSGSGTDFTLTISSLEPEDFAVYYCQQYFRAPITFGQGTKVEIKK	1.67 nM
